{"source": "patent US20230364000A1", "about": "“COMPOSITIONS COMPRISING COMBINATIONS OF COLLAGEN OR ELASTIN POLYPEPTIDES WITH ACTIVE INGREDIENTS AND METHODS OF USING SAME” (Geltor, Inc., priority 2020, published 2023)", "molecules": {"B1": {"name": "SEQ ID NO: 16: truncated human collagen type 21 alpha 1 without the DsbA secretion tag, recombinantly expressed in E. coli (protein)", "chain": "AGFPGLPGPAGEPGRHGKDGLMGSPGFKGEAGSPGAPGQDGTRGEPGIPGFPGNRGLMGQKGEIGPPGQQGKKGAPGMPGLMGSNGSPGQPGTPGSKGSKGEPGIQGMPGASGLKGEPGATGSPGEPGYMGLPGIQGKKGDKGNQGEKGIQGQKGENGRQGIPGQQGIQGHHGAKGERGEKGEPGVR"}}, "type_in_all_cases": "in vivo, human", "key": {"facial skin [1]": {"system": "facial skin", "test": "SIAscope dermal collagen, clinical study of Example 3", "conditions": "0.1% w/w topical formulation, Week 2", "experimental": "A clinical study using human subjects to determine the effects of a topical skincare product containing truncated human type 21 collagen (SEQ ID NO: 16) is performed. The research is performed according to U.S. and International standards of Good Clinical Practice (FDA and ICH guidelines) and applicable government regulations.\nA base formulation (control formulation) made of water, olive oil glycereth-8 esters, glycerin, coconut alkanes, hydroxyethyl acrylate/sodium acryloyldimethyl taurate copolymer, pentylene glycol, disodium EDTA, caprylyl glycol, chlorphenesin, phenoxyethanol is prepared. A formulation containing the truncated human type 21 collagen is prepared by adding sufficient collagen to prepare a topical formulation containing 0.1% w/w collagen.\nThe COSMETRICS™ SIAScope (Astron Clinica, Toft, UK) is a non-invasive optical skin imaging instrument using Spectrophotometric Intracutaneous Analysis (SIA), or chromophore mapping. The technique is based on a unique combination of dermatoscopy and contact remittance spectrophotometry. The hardware consists of a hand-held imaging probe attached to a laptop computer. The unit is placed in contact with the skin surface and high-intensity LED's illuminate the skin as discreet wavelengths of 400 to 1000 nm, spanning the visible spectrum and a small range of the near infrared spectrum. A digital image is captured for each wavelength. Three parametric chromophore maps are retrieved up to 2 mm in depth and 11 mm in circumference, one for each of the following parameters: epidermal melanin, dermal hemoglobin and dermal collagen.\nFor the purposes of this study, dermal collagen will be measured on the left or right cheek, per a prepared randomization code, at baseline and at weeks 2, 4, and 8. Assessment location will be recorded on a face map for each subject for consistency of measurements between visits.\nImprovements in skin hydration, firmness, and elasticity were statistically significant."}, "facial skin [2]": {"system": "facial skin", "test": "Facial skin redness, clinical study of Example 5", "conditions": "topical facial serum 0.1%, n=15, FIG. 8", "description": "(§1) In a clinical study (n=15 subjects), subjects used a topical facial serum containing 0.1% of a polypeptide of SEQ ID NO: 16 for 8 weeks, after using a protein-free base facial serum for a 1-week washout period."}, "facial skin [3]": {"system": "facial skin", "test": "Cutometer facial skin elasticity, clinical study of Example 5", "conditions": "topical facial serum 0.1%, n=15, FIG. 6", "description": "as §1, with “period. Topical application of a polypeptide of SEQ ID NO: 16 was associated with increased skin elasticity, measured using a cutometer.” for “period.”"}}}
{"molecule": "B1", "values": [{"measurement": "SIAscope Collagen Mean Percent Improvement From BL mean", "setting": "facial skin [1]", "value": 6.72, "unit": "%"}, {"measurement": "SIAscope Collagen Percent of Subjects Showing Improvement From BL", "setting": "facial skin [1]", "value": 78.6, "unit": "%"}, {"measurement": "SIAscope Collagen Mean ± SD", "setting": "facial skin [1]; n 14, baseline 238.95 ± 11.60, P-value 0.004*", "value": "254.89 ± 19.35"}, {"measurement": "skin redness", "setting": "facial skin [2]; 4 weeks vs baseline", "value": "decrease"}, {"measurement": "skin redness", "setting": "facial skin [2]; 8 weeks vs baseline", "value": "decrease"}, {"measurement": "subjects showing improvement with an increase in skin elasticity", "setting": "facial skin [3]; 2 weeks vs baseline", "value": 100, "unit": "%"}, {"measurement": "subjects showing improvement with an increase in skin elasticity", "setting": "facial skin [3]; 4 weeks vs baseline", "value": 100, "unit": "%"}]}
